Reference: publication PMC12782892, “Natural variations in MdBPM2/MdRGLG3‐MdNAC83 network controlling the quantitative segregation of apple fruit storability”

Target: MdNAC83 (Malus domestica, UniProt D9ZJA0 1-255)
Experiment: EMSA; LightShift Chemiluminescent EMSA kit (Thermo), per Fan et al. 2018; buffer, salt, pH and temperature not stated
Conditions: protein: recombinant, tags: His (pET-32a), chain copies: 2, blunt

MdNAC83, sequence (D9ZJA0 entry or part of it): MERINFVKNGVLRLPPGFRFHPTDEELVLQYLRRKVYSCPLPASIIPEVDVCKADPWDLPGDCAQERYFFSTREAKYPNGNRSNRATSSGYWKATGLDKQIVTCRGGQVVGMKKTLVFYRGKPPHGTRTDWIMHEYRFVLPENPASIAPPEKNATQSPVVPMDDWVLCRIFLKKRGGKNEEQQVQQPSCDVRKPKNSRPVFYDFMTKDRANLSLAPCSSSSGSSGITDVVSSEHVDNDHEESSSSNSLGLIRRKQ

B1: MdMANA3 promoter probe (MdMAN3-F/R) (dsDNA)
DNA 1: GGTTAATTTTCTCAATTTCGTATTGATTTACTCTTGTACT
DNA 2: AGTACAAGAGTAAATCAATACGAAATTGAGAAAATTAACC
B1: binds ((LightShift kit; MdMAN3-HotF)).

B2: MdXTH28 promoter probe (MdXH28-F/R) (dsDNA)
DNA 1: CCGTCCAAACCAGTAAACACGTAATTATAATCTCATTTAT
DNA 2: ATAAATGAGATTATAATTACGTGTTTACTGGTTTGGACGG
B2: binds ((LightShift kit)).

B3: MdACO1 promoter probe (MdACO1-F/R) (dsDNA)
DNA 1: TTGGTAGGGGTCCATCAGGACGTGCTTACTGTTCCCTACT
DNA 2: AGTAGGGAACAGTAAGCACGTCCTGATGGACCCCTACCAA
B3: binds ((LightShift kit; MdACO1-HotF)).
